B1: ActRIIB(20-134)-hFc (Fc fusion, not shown: a dimerising Fc or GST)
chain: GRGEAETRECIYYNANWELERTNQSGLERCEGEQDKRLHCYASWRNSSGTIELVKKGCWLDDFNCYDRQECVATEENPQVYFCCCEGNFCNERFTHLPEAGGPEVTYEPPPTAPT
notes: The residue range comes from the construct name; also called full-length counterpart ActRIIB(20-134)-hFc

Assays:
Assay in all cases: Biacore, steady-state affinity fit
Activin A = target: T1, Activin A (UniProt P08476 311-426)
T1 sequence (looked up): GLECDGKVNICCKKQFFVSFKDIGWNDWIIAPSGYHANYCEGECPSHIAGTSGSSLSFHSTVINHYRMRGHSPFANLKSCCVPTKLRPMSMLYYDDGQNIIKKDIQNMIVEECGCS
Source text: (§1) Kd values were obtained by steady-state affinity fit due to very rapid association and dissociation of the complex, which prevented accurate determination of kₒₙ and koff.

Activin B = target: T2, Activin B (UniProt P09529 293-407)
T2 sequence (looked up): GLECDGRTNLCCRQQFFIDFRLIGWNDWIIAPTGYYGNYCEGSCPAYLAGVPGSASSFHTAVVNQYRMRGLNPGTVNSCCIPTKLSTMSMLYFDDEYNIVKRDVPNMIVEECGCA
Source text: as §1

ActRIIB(20-134)-hFc = target: B1
Source text: as §1

With B1 as the binder, how does the Kd (Activin A) read?
Its Kd is 0.016 nM.

What about the Kd (Activin B) of the same binder?
The Kd was 0.012 nM.

B2: Growth and Differentiation Factor-11 (GDF11) (ligand, UniProt O95390 299-407, looked up)
chain: NLGLDCDEHSSESRCCRYPLTVDFEAFGWDWIIAPKRYKANYCSGQCEYMFMQKYPHTHLVQQANPRGSAGPCCTPTKMSPINMLYFNDKQQIIYGKIPGMVVDRCGCS
notes: also called BMP11
For B2, which Kd (ActRIIB(20-134)-hFc) is on record?
The Kd was 0.036 nM.
